Measurements as given in patent EP0833843B1.
pKi: −log10 of the molar value.

Molecular target: MC1-R (melanocyte-stimulating hormone receptor)
Assay: inhibition of MC1-R activation by the purified recombinant ASP preparation; assay details not given (Ollmann et al., in preparation)

pKi: 9.66
Substance: Recombinant mouse agouti signal protein (ASP) (ligand)
